Consider eleven molecules from article PMC6101547 (Nucleic Acids Research, 2018).

Data set [1] concerns the molecule itself. The data set can be described thus: AUC.
Data set [2] deals with T1, Rim1 (mitochondrial SSB) (Saccharomyces cerevisiae, UniProt P32445 17-135).
T1 sequence: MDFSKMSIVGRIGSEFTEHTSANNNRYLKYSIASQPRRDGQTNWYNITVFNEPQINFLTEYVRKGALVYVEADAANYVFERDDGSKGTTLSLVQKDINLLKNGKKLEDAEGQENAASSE
The data set can be described thus: FRET titration.

Data set [3] deals with T1, Rim1 (mitochondrial SSB). Put plainly: Cy3 fluorescence titration.
Data set [4] deals with the molecule itself. Put plainly: AUC. This is another data set of the same source.
Data set [5] deals with the molecule itself. The data set can be described thus: AUC. The source holds these as a separate data set.
The next data set addresses T2, Rim1 Y85H (Saccharomyces cerevisiae, UniProt P32445 17-135, Y85H).
T2 sequence: T1 sequence with Y69H
The data set can be described thus: sedimentation equilibrium.

Data set [6] concerns the target T1, Rim1 (mitochondrial SSB). Put plainly: Cy3 fluorescence titration. The source holds these as a separate data set.
Data set [7] deals with T1, Rim1 (mitochondrial SSB). Put plainly: FRET titration. The source holds these as a separate data set.
Data set [8] deals with T1, Rim1 (mitochondrial SSB). Put plainly: sedimentation equilibrium.
The target of data set [9] is T1, Rim1 (mitochondrial SSB). Put plainly: Cy3 fluorescence titration. The source holds these as a separate data set.
Data set [10] concerns the target T1, Rim1 (mitochondrial SSB). The data set can be described thus: FRET titration. This is another data set of the same source.
Data set [11] deals with T1, Rim1 (mitochondrial SSB). The data set can be described thus: Cy3 fluorescence titration. The source holds these as a separate data set.

Residue numbers refer to the chain shown, from its start. Numbers in names are those of the source. Like-named read-outs stand apart in the source and are kept apart here.

B1: Human mitochondrial SSB, mitochondrial form (amino acids 17-148) (natural protein, UniProt Q04837 17-148, looked up)
chain: ESETTTSLVLERSLNRVHLLGRVGQDPVLRQVEGKNPVTIFSLATNEMWRSGDSEVYQLGDVSQKTTWHRISVFRPGLRDVAYQYVKKGSRIYLEGKIDYGEYMDKNNVRRQATTIIADNIIFLSDQTKEKE
Take B1: the binding result in “AUC [1]” is given as “binds”.

B2: Cy5-dT68-Cy3-T (ssDNA)
DNA: TTTTTTTTTTTTTTTTTTTTTTTTTTTTTTTTTTTTTTTTTTTTTTTTTTTTTTTTTTTTTTTTTTTTT
modifications: internal Cy3 before last T
On to B2, for which, in the data set with Rim1 (mitochondrial SSB) [2], the binding result was “binds”.
For the molecule TTTTTTTTTTTTTTTTTTTTT (ssDNA, internal Cy3 before last T) [dT20-Cy3-T], the binding result with Rim1 (mitochondrial SSB) [3] is “binds”.

B3: Rim1 harboring the mutation Y85H (amino acids 17-135) (natural protein, S. cerevisiae, UniProt P32445 17-135, looked up)
chain: T1 sequence with Y69H
Turning to B3, the entries for the “stoichiometry N” value in “AUC [4]” and in the data set “AUC [5]” were 4 and 2, respectively.
With TTTTTTTTTTTTTTTTTTTT (ssDNA) [Cy3-labeled dT20 (AUC)], in the data set with Rim1 Y85H, the binding result was “binds”.
Turning to TTTTTTTTTTTTTTTTTTTTTTTTTTTTT (ssDNA, internal Cy3 before last T) [dT28-Cy3-T], the binding result with Rim1 (mitochondrial SSB) [6] is listed as “binds”.
Turning to TTTTTTTTTTTTTTTTTTTTTTTTTTTTTTTTTTTTTTTTT (ssDNA, internal Cy3 before last T) [Cy5.5-dT40-Cy3-T], the binding result with Rim1 (mitochondrial SSB) [7] is listed as “binds”.
Regarding TTTTTTTTTTTTTTT (ssDNA) [Cy3-labeled dT15 (AUC)], the binding result with Rim1 Y85H and with Rim1 (mitochondrial SSB) [8] was “binds” each time.
Turning to TTTTTTTTTTTTTTTTTTTTTTTTTTTTTTTTTTTTTTT (ssDNA, internal Cy3 before last T) [dT38-Cy3-T], the binding result in the data set with Rim1 (mitochondrial SSB) [9] is “binds”.
For the molecule TTTTTTTTTTTTTTTTTTTTTTTTTTTTTTTTTTTTTTTTTTTTTT (ssDNA, internal Cy3 before last T) [Cy5.5-dT45-Cy3-T], the binding result in the data set with Rim1 (mitochondrial SSB) [10] is reported as “binds”.
As to TTTTTTTTTTTTTTTT (ssDNA, internal Cy3 before last T) [dT15-Cy3-T], in the data set with Rim1 (mitochondrial SSB) [11], the binding result is recorded as “binds”.
